Test results from patent US20150361150A1.

Molecular target: tyrosine-protein kinase KIT on the surface of human KIT+ GIST cell lines (GIST 882, GIST 48) (human) (UniProt P10721)
Assay: cell-based or functional assay

Sequence of UniProt P10721 (P10721 26-976): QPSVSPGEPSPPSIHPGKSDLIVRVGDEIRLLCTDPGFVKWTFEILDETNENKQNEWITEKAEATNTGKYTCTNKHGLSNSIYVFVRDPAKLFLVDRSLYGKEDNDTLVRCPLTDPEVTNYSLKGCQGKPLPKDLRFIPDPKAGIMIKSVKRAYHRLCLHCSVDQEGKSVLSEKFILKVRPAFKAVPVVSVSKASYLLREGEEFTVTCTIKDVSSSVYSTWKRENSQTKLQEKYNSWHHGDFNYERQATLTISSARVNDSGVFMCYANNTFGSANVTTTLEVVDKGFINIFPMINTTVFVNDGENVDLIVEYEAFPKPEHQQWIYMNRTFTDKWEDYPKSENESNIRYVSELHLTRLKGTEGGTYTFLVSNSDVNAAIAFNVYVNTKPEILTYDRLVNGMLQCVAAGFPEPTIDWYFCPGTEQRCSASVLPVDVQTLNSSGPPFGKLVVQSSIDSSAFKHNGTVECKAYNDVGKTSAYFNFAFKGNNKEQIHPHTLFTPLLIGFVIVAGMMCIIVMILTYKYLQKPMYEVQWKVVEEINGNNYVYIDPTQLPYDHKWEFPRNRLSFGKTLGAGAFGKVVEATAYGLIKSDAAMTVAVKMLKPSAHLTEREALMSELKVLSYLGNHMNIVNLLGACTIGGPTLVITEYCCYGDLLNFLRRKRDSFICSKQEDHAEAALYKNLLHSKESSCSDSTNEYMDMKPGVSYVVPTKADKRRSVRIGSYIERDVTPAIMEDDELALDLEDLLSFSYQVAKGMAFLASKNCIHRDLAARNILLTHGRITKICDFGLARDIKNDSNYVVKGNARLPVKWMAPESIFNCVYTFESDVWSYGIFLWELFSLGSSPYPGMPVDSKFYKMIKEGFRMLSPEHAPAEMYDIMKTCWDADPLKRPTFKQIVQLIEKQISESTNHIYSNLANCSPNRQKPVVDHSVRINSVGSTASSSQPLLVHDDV

percent of designer T cells divided (CFSE dilution) in co-culture with KIT+ GIST882 cells	Substance
39%	1^st generation anti-KIT chimeric immune receptor (extracellular domain of KIT ligand fused to the CD3 zeta chain), expressed on human designer T cells
47%	2^nd generation anti-KIT chimeric immune receptor (extracellular domain of KIT ligand fused to CD28 and CD3 zeta), expressed on human designer T cells
